Results: US10766952B2, “Methods for reducing migraine frequency in a subject in need thereof” (Beth Israel Deaconess Medical Center, Inc., priority 2017, dated 2020)

Key:
Assay type in all cases: in vivo, rat
[1] = tested on: naïve wide-dynamic range (WDR) trigeminovascular neurons; assay: Single-unit recording of naïve central trigeminovascular neurons, WDR neurons; conditions: 30 mg/kg IV
From the text: Experiments were approved by the Beth Israel Deaconess Medical Center and Harvard Medical School standing committees on animal care, and in accordance with the U.S. National Institutes of Health Guide for the Care and Use of Laboratory Animals. Male and female Sprague-Dawley rats (250-350 g) were anesthetized with urethane (0.9-1.2 g/kg i.p.). They were fitted with an intra-tracheal tube to allow artificial ventilation (0.1 L/min of (O2), and an intra-femoral-vein cannula for later infusion of drugs. Rats were placed in a stereotaxic apparatus, and core temperature was kept at 37° C. using a heating blanket. End-tidal […] was continuously monitored and kept within physiological range (3.5-4.5 pCO2). Once stabilized, rats were paralyzed with rocuronium bromide (10 mg/ml, 1 ml/hr continuous intravenous infusion) and ventilated. For stimulation of the cranial dura later in the experiment, a 5×5-mm opening was carefully carved in the parietal and occipital bones in front and behind the lambda suture, directly above the left transverse sinus. The exposed dura was kept moist using a modified synthetic interstitial fluid (135 mM NaCl, 5 mM KCl, 1 mM MgCl2, 5 mM CaCl2, 10 mM glucose and 10 mM Hepes, pH 7.2). […]
To record neuronal activity, a tungsten microelectrode (impedance 3-4 MΩ) was lowered repeatedly into the spinal trigeminal nucleus (STN) in search of central trigeminovascular neurons receiving convergent input from the dura and facial skin. […] Responses to mechanical stimulation of the skin were determined by applying brief (10 s) innocuous and noxious stimuli to the most sensitive portion of the cutaneous receptive field. […] Real-time waveform discriminator was used to create and store a template for the action potential evoked in the neuron under study by electrical pulses on the dura; spikes of activity matching the template waveform were acquired and analyzed online and offline using Spike 2 software (CED, Cambridge, UK). […]

[2] = tested on: first-order trigeminovascular neurons (A-delta and C-type meningeal nociceptors); assay: Single-unit recording of first-order trigeminovascular neurons in the trigeminal ganglion activated by CSD
Protocol: CSD was induced by pinprick 4 hours after drug/isotype infusion.

[3] = tested on: naïve high-threshold (HT) trigeminovascular neurons; assay: Single-unit recording of naïve central trigeminovascular neurons, HT neurons; conditions: 30 mg/kg IV
From the text: Experiments were approved by the Beth Israel Deaconess Medical Center and Harvard Medical School standing committees on animal care, and in accordance with the U.S. National Institutes of Health Guide for the Care and Use of Laboratory Animals. Male and female Sprague-Dawley rats (250-350 g) were anesthetized with urethane (0.9-1.2 g/kg i.p.). They were fitted with an intra-tracheal tube to allow artificial ventilation (0.1 L/min of (O2), and an intra-femoral-vein cannula for later infusion of drugs. Rats were placed in a stereotaxic apparatus, and core temperature was kept at 37° C. using a heating blanket. End-tidal […] was continuously monitored and kept within physiological range (3.5-4.5 pCO2). Once stabilized, rats were paralyzed with rocuronium bromide (10 mg/ml, 1 ml/hr continuous intravenous infusion) and ventilated. For stimulation of the cranial dura later in the experiment, a 5×5-mm opening was carefully carved in the parietal and occipital bones in front and behind the lambda suture, directly above the left transverse sinus. The exposed dura was kept moist using a modified synthetic interstitial fluid (135 mM NaCl, 5 mM KCl, 1 mM MgCl2, 5 mM CaCl2, 10 mM glucose and 10 mM Hepes, pH 7.2). For single-unit recording in the spinal trigeminal nucleus, a segment of the spinal cord between the obex and C2 was uncovered from overlying tissues, stripped of the dura mater, and kept moist with mineral oil.
To record neuronal activity, a tungsten microelectrode (impedance 3-4 MΩ) was lowered repeatedly into the spinal trigeminal nucleus (STN) in search of central trigeminovascular neurons receiving convergent input from the dura and facial skin. Trigeminovascular neurons were first identified based on their responses to electrical stimulation of the dura. […] Dural receptive fields were mapped by indenting the dura (with the 4.19 g VFH monofilament) at points separated by 1 mm mediolaterally and rostrocaudally. Points at which dural indentation produced a response in ≥50% of the trials were considered inside the neurons receptive field. Cutaneous receptive fields were mapped by applying innocuous and noxious mechanical stimulation to all facial skin areas and the cornea. An area was considered outside the receptive field if no stimulus produced a response in ≥50% of the trials. Responses to mechanical stimulation of the skin were determined by applying brief (10 s) innocuous and noxious stimuli to the most sensitive portion of the cutaneous receptive field. Innocuous stimuli consisted of slowly passing a soft bristled brush across the cutaneous receptive field (one 5-s brush stroke from caudal to rostral and one 5-s brush stroke from rostral to caudal) and pressure applied with a loose arterial clip. Noxious stimuli consisted of pinch with a strong arterial clip (Palecek et al., 1992, J. Neurophysiol. 67:1562-1573; Dado et al., 1994, J. Neurophysiol. 71:981-1002; Burstein et al., 1998, J. Neurophysiol. 79:964-982). More intense or prolonged stimuli were not used to avoid inducing prolonged changes in spontaneous neuronal discharge or response properties. […] Real-time waveform discriminator was used to create and store a template for the action potential evoked in the neuron under study by electrical pulses on the dura; spikes of activity matching the template waveform were acquired and analyzed online and offline using Spike 2 software (CED, Cambridge, UK). […]

B1: fremanezumab (antibody)
heavy: EVQLVESGGGLVQPGGSLRLSCAASGFTFSNYWISWVRQAPGKGLEWVAEIRSESDASATHYAEAVKGRFTISRDNAKNSLYLQMNSLRAEDTAVYYCLAYFDYGLAIQNYWGQGTLVTVSSASTKGPSVFPLAPCSRSTSESTAALGCLVKDYFPEPVTVSWNSGALTSGVHTFPAVLQSSGLYSLSSVVTVPSSNFGTQTYTCNVDHKPSNTKVDKTVERKCCVECPPCPAPPVAGPSVFLFPPKPKDTLMISRTPEVTCVVVDVSHEDPEVQFNWYVDGVEVHNAKTKPREEQFNSTFRVVSVLTVVHQDWLNGKEYKCKVSNKGLPSSIEKTISKTKGQPREPQVYTLPPSREEMTKNQVSLTCLVKGFYPSDIAVEWESNGQPENNYKTTPPMLDSDGSFFLYSKLTVDKSRWQQGNVFSCSVMHEALHNHYTQKSLSLSPGK
light: EIVLTQSPATLSLSPGERATLSCKASKRVTTYVSWYQQKPGQAPRLLIYGASNRYLGIPARFSGSGSGTDFTLTISSLEPEDFAVYYCSQSYNYPYTFGQGTKLEIKRTVAAPSVFIFPPSDEQLKSGTASVVCLLNNFYPREAKVQWKVDNALQSGNSQESVTEQDSKDSTYSLSSTLTLSKADYEKHKVYACEVTHQGLSSPVTKSFNRGEC
notes: humanized anti-CGRP antagonist antibody, vectors ATCC PTA-6867 and PTA-6866
spontaneous activity of WDR neurons ([1]; female rats): did not reduce the spontaneous activity
sensitivity of WDR neurons to mechanical stimulation of the dura ([1]; male and female rats): not the WDR neurons
responses of WDR neurons to innocuous (brush, pressure) or noxious (pinch) mechanical stimulation of the skin or the cornea ([1]; male or female rats): did not alter the responses
activation of meningeal nociceptors by CSD ([2]; FIGS. 20A and 20B): prevents the activation of most a-delta and some C-type meningeal nociceptors
a-delta fibers activated by CSD ([2]; male rats, 30 mg/kg IV 4 hours before CSD, FIG. 21A): 14%
C-fibers activated by CSD ([2]; male rats, 30 mg/kg IV 4 hours before CSD, FIG. 21B): 23%
neurons tested that were activated by CSD ([2]; male rats, 30 mg/kg IV 4 hours before CSD, all neurons): 20%
spontaneous activity of HT neurons ([3]; female rats): did not reduce the spontaneous activity
decrease of firing of HT neurons in response to mechanical stimulation of the dura ([3]; female rats, p=0.017): 61%
responses of HT neurons to innocuous (brush, pressure) or noxious (pinch) mechanical stimulation of the skin or the cornea ([3]; male or female rats): did not alter the responses
decrease of firing of HT neurons in response to mechanical stimulation of the dura ([3]; male rats, p=0.047): 75%
decrease of spontaneous neuronal firing of HT neurons ([3]; male rats, within 3-4 hrs, p=0.040): 90%
